In paper PMC3206816:
Where “and” joins values, the source holds several entries; their conditions need not be identical. Identical values can stand only once.

Tests used:
[1] = target: full-length HIV-1 Nef (RP14) (HIV-1); test: cross-linking; purified Nef with glutaraldehyde (0.0%, 0.025%, 0.05%, 0.075%, 0.1%) on ice for 15 minutes; 12% SDS-PAGE, silver stain and western blot with anti-His antibody
[2] = target: full-length HIV-1 Nef (RP14) (HIV-1); test: crystal structure; hanging drop, Nef at ~3.7 mg/ml; 0.1 M Tris pH 8.5, 0.2 M ammonium sulfate, 20% PEG 8000; space group P6(3)22, two chains in the asymmetric unit, tetramer with 4-fold symmetry formed through crystal symmetry; 3.5 Å

full-length HIV-1 Nef (RP14) (natural protein)
stoichiometry N [1]: 2 and 4
stoichiometry N [2]: 4
